Laboratory results taken from US20030119102A1 (Takeda / Millennium, published 2003).

T1: Kv2.1 (rat brain membranes) (rat, UniProt P15387 1-857)
T1 sequence (looked up): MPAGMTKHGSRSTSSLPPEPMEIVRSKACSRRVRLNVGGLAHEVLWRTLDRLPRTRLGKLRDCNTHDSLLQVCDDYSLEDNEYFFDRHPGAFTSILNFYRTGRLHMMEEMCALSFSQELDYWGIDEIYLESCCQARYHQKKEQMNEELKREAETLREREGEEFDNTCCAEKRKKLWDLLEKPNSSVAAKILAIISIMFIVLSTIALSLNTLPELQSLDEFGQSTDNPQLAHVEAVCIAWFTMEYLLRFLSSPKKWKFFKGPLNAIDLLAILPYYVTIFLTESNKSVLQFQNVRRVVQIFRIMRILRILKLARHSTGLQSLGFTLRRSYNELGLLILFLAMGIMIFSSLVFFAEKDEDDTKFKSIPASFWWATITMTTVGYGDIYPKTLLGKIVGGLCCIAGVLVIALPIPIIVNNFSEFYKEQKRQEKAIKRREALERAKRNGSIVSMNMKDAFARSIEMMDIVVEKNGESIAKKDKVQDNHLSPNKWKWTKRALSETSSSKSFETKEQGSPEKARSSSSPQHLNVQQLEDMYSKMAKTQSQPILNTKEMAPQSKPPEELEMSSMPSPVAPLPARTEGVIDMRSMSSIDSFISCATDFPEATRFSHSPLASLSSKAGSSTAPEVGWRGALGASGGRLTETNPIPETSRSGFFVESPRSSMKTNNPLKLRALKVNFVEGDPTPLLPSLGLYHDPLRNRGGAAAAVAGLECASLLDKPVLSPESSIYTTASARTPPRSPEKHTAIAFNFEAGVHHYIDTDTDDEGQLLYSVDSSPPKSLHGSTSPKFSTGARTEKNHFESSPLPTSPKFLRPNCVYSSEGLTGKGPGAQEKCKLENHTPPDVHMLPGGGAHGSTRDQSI

T2: rat 1p (rat, UniProt B9EHT4 181-427 (mouse entry), limits assumed)
T2 construct: Partial-length clone, two-hybrid prey; also called Ip; lp
T2 sequence: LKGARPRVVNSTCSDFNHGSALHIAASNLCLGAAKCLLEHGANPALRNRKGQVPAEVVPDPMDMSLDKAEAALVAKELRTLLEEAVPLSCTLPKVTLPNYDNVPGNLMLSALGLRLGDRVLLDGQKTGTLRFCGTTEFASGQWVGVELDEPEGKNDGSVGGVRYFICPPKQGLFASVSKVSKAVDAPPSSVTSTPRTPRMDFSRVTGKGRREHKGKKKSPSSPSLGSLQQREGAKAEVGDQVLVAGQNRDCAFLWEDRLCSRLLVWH

T3: rat 19r (rat, UniProt P16446 1-271, limits assumed)
T3 construct: also called partial rat 19r; phosphatidylinositol transfer protein alpha
T3 sequence: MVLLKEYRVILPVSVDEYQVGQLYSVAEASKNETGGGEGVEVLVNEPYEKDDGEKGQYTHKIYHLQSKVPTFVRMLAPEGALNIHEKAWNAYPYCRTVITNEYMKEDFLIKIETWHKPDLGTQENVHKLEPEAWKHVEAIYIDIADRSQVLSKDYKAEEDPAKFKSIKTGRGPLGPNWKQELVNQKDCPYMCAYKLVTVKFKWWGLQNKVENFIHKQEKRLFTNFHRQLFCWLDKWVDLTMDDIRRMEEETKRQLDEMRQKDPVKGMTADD

T4: rat Kv4.2 α-subunit (rat, UniProt Q63881 1-630)
T4 construct: whole, on cells; also called rKv4.2
T4 sequence (looked up): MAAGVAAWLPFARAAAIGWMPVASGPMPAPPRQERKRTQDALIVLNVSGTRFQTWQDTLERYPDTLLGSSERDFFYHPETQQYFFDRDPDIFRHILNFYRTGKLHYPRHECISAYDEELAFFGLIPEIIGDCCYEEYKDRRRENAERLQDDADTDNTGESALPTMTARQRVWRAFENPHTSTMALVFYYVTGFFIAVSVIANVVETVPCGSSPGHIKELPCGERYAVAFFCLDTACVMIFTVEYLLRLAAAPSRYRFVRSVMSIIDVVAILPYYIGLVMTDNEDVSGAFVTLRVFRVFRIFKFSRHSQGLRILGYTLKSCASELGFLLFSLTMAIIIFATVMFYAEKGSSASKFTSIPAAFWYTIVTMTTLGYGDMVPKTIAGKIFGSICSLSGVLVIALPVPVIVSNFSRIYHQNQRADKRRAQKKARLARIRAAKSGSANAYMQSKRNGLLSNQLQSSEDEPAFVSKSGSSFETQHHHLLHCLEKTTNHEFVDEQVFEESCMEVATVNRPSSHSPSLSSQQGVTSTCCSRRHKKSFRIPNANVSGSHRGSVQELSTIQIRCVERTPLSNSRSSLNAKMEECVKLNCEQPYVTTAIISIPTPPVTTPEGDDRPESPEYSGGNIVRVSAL

B1: KChIP2 of rat brain membranes (other, UniProt Q9JM59 1-270, looked up)
chain: MRGQGRKESLSESRDLDGSYDQLTGHPPGPSKKALKQRFLKLLPCCGPQALPSVSETLAAPASLRPHRPRPLDPDSVEDEFELSTVCHRPEGLEQLQEQTKFTRRELQVLYRGFKNECPSGIVNEENFKQIYSQFFPQGDSSNYATFLFNAFDTNHDGSVSFEDFVAGLSVILRGTIDDRLSWAFNLYDLNKDGCITKEEMLDIMKSIYDMMGKYTYPALREEAPREHVESFFQKMDRNKDGVVTIEEFIESCQQDENIMRSMQLFDNVI
notes: also called PCIPs (KChIPs 1, 2, and 3)
B2: rat 29x (other)
chain: ARLPAPEHARQQPLLSGPEPGSSARVPVPGVASRRQPRGGKPPSGDGLESGPSPRPLLHARGEAGLHRQSGRVPHTGTAYFADEPTEAQAPGGFCVSPSLLGVRWPACATRTPGSLPLSPPSAQPRTLWPTPPAGPSSRMVARNQVAADNAISPASEPRRRPEPSSSSSSSSPAAPARPRPCPVVPAPAPGDTHFRTFRSHSDYRRITRTSALLDACGFYWGPLSVHGAHERLRAEPVGTFLVRDSRQRNCFFALSVKMASGPTSIRVHFQAGRFHLDGSRETFDCLFELLEHYVAAPRRMLGAPLRQRRVRPLQELCRQRIVAAVGRENLARIPLNPVLRDYLSSFPFQI
notes: Two-hybrid prey; also called SOCS-1; JAB
B3: rKv1.1N (other, rat, UniProt P10499 1-164, looked up)
chain: MTVMSGENADEASAAPGHPQDGSYPRQADHDDHECCERVVINISGLRFETQLKTLAQFPNTLLGNPKKRMRYFDPLRNEYFFDRNRPSFDAILYYYQSGGRLRRPVNVPLDMFSEEIKFYELGEEAMEKFREDEGFIKEEERPLPEKEYQRQVWLLFEYPESSG
notes: Bait of the specificity test; the construct is not described; also called Kv1.1 subunits; rKvl.iN
B4: rat 5p (other)
chain: MPSQMEHAMETMMLTFHRFAGEKNYLTKEDLRVLMEREFPGFLENQKDPLAVDKIMKDLDQCRDGKVGFQSFLSLVAGLIIACNDYFVVHMKQKK
notes: Two-hybrid prey; also called Calpactin I light chain; P10
B5: rat 33b07 (other)
chain: MNGVEGNNELPLANTSTSALVPEDLDLKQDQPLSEETDTVREMEAAGEAGAEGGASPDSEHCDPQLCLRVAENGCAAAAGEGLEDGLSSSKCGDAPLASVAANDSNKNGCQLAGPLSPAKPKTLEASGAVGLGSQMMPGPKKTKVMTTKGAISATTGKEGEAGAAMQEKKGVQKEKKAAGGGKDETRPRAPKINNCMDSLEAIDQELSNVNAQADRAFLQLERKFGRMRRLHMQRRSFIIQNIPGFWVTAFRNHPQLSPMISGQDEDMMRYMINLEVEELKHPRAGCKFKFIFQSNPYFRNEGLVKEYERRSSGRVVSLSTPIRWHRGQEPQAHIHRNREGNTIPSFFNWFSDHSLLEFDRIAEIIKGELWSNPLQYYLMGDGPRRGVRVPPRQPVESPRSFRFQSG
notes: also called partial rat 33b07 (clone name 9o)
B6: rat 9qm (other)
chain: MRGQGRKESLSESRDLDGSYDQLTGHPPGPSKKALKQRFLKLLPCCGPQALPSVSENSVEDEFELSTVCHRPEGLEQLQEQTKFTRRELQVLYRGFKNECPSGIVNEENFKQIYSQFFPQGDSSNYATFLFNAFDTNHDGSVSFEDFVAGLSVILRGTIDDRLSWAFNLYDLNKDGCITKEEMLDIMKSIYDMMGKYTYPALREEAPREHVESFFQKMDRNKDGVVTIEEFIESCQQDENIMRSMQLFDNVI
B7: rat 7q (other)
chain: MAYAYLFKYIIIGDTGVGKSCLLLQFTDKRFQPVHDLTIGVEFGARMITIDGKQIKLQIWDTAGQESFRSITRSYYRGAAGALLVYDITRRDTFNHLTTWLEDARQHSNSNMVIMLIGNKSDLESRREVKKEEGEAFAREHGLIFMETSAKTASNVEEAFINTAKEIYEKIQEGVFDINNEANGIKIGPQHAATNASHGGNQGGQQAGGGCC
notes: Two-hybrid prey; The full length was obtained by RACE PCR; also called RAB2
B8: KChIP3 of rat brain membranes (other, UniProt Q9JM47 1-256, looked up)
chain: MQRTKEAMKASDGSLLGDPGRIPLSKREGIKWQRPRFTRQALMRCCLIKWILSSAAPQGSDSSDSELELSTVRHQPEGLDQLQAQTKFTKKELQSLYRGFKNECPTGLVDEDTFKLIYSQFFPQGDATTYAHFLFNAFDADGNGAIHFEDFVVGLSILLRGTVHEKLKWAFNLYDINKDGYITKEEMLAIMKSIYDMMGRHTYPILREDAPLEHVERFFQKMDRNQDGVVTIDEFLETCQKDENIMSSMQLFENVI
notes: as for B1
B9: rat 1v (other)
chain: MPARVLLAYPGTEMLTQGESEGLQTLGIVVVLCSSLKLLHYLGLIDLSDDKIEDDLEMTMVCHRPEGLEQLEAQTNFTKRELQVLYRGFKNECPSGVVNEETFKQIYAQFFPHGDASTYAHYLFNAFDTTQTGSVKFEDFVTALSILLRGTVHEKLRWTFNLYDINKDGYINKEEMMDIVKAIYDMMGKYTYPVLKEDTPRQHVDVFFQKMDKNKDGIVTLDEFLESCQEDDNIMRSLQLFQNVM
notes: also called KChIP1; KchIP1

Tests used:
[1] = target: T1, Kv2.1 (rat brain membranes); test: co-immunoprecipitation from rat brain synaptic membranes
[2] = target: B3; test: yeast two-hybrid
[3] = target: T5, rat 7s (rat, UniProt P50516 348-617 (mouse entry), limits assumed); test: yeast two-hybrid
T5 construct: Partial-length clone, two-hybrid prey; Rat ortholog of the vacuolar H(+)-ATPase catalytic subunit A

[4] = target: T2, rat 1p; test: yeast two-hybrid
[5] = target: T3, rat 19r; test: yeast two-hybrid
[6] = target: T4, rat Kv4.2 α-subunit; test: immunoprecipitation from rat brain membranes
[7] = target: T4, rat Kv4.2 α-subunit; test: cell-based or functional assay

T5 sequence (P50516 348-617 limits assumed): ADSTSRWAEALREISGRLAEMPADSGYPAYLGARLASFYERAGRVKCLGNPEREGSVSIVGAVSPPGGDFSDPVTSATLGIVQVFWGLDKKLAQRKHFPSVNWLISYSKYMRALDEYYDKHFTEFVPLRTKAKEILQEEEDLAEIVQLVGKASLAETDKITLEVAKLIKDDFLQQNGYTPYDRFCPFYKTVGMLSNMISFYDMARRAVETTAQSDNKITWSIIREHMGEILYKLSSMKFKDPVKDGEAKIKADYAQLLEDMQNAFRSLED

Row | binding result [1] | binding result [2] | Binder | other results
1 | no binding |  | B1 | 
2 |  | no binding | B2 | 
3 |  |  | B3 | binding result [3]: no binding; binding result [4]: no binding; binding result [5]: no binding
4 |  | no binding | B4 | 
5 |  | no binding | B5 | 
6 |  |  | B6 | binding result [6]: binds
7 |  | no binding | B7 | 
8 | no binding |  | B8 | 
9 | no binding |  | B9 | Kv4.2 current density in CHO cells, fold increase with coexpression of KChIP1 [7]: 12 fold; amplitude of the Kv4.2 current in CHO cells, fold increase in the presence of KChIP1 [7]: ~7.5 fold
